Assay [1] addresses T1, orexin receptor 1 (OX1R) (human (endogenous in HepG2)) (UniProt O43613).
T1 sequence: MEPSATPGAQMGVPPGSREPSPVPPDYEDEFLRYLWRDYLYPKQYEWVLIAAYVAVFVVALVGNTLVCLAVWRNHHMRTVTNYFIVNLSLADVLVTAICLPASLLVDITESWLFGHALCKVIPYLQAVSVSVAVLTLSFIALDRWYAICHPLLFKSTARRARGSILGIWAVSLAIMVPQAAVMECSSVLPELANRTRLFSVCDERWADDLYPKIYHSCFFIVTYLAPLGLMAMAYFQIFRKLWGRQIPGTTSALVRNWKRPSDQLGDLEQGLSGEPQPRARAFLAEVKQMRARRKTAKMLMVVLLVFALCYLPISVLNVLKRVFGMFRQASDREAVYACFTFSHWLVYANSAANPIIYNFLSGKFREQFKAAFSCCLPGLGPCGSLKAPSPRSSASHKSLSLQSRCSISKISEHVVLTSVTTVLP

Assay [2] deals with T1, orexin receptor 1 (OX1R) (human (endogenous in HepG2)). This is another data set of the same source.
The target is the same in assay [3]. The source holds these as a separate data set.

This note sets out measurements from paper PMC5590901.

Molecule QPLPDCCRQKTCSCRLYELLHGAGNHAAGILTL [Orexin A] showed a cellular ATP content in HepG2 cells, orexin A 10^-9 to 10^-7 M for 2 h, fold of control; abrogated by the OX1R inhibitor SB334867 (10^-6 M) in assay [1] of 3.03 fold. In assay [2], the GLUT1 protein expression (western blot) in HepG2 cells, orexin A 10^-9 to 10^-7 M for 2 h, fold of untreated cells; blocked by the OX1R inhibitor SB334867 (10^-6 M) is 2.43 fold and the glucose uptake (2-deoxy-D-[3H]glucose) in HepG2 cells, orexin A 10^-9 to 10^-7 M, fold of control; blocked by the OX1R inhibitor SB334867 (10^-6 M) is 1.71 fold. Besides, in assay [3], the LDHA mRNA (real-time PCR) in HepG2 cells, 10^-7 M orexin A for 2 h, fold against control; dampened by the OX1R inhibitor SB334867 (10^-6 M) stood at 0.5 fold and the PDK1 mRNA (real-time PCR) in HepG2 cells, 10^-7 M orexin A for 2 h, fold against control; dampened by the OX1R inhibitor SB334867 (10^-6 M) amounted to 0.53 fold.
